Laboratory results from patent US20240360204A1 (UNITED STATES GOVERNMENT AS REPRESENTED BY THE DEPARTMENT …, published 2024).

Experiments:
[1] = target: T1, Oxygen stable streptolysin O (SLOwt) from Streptococcus pyogenes, recombinant, N-terminal His-tag, BirA … (Streptococcus pyogenes, UniProt Q5XE40 32-571, limits assumed, mono-biotinylated at the BirA (AviTag) site where biotinylated SLOwt was used (ELISA; one lane of the Western blot)); test: ELISA
T1 construct: The oxygen-stability change (C to A at position 555) and the tags are kept; also called WT SLO

[2] = target: T1, Oxygen stable streptolysin O (SLOwt) …; test: cell-based or functional assay

| Binder | Kd [1] [nM] | aCTX IC50 (M): anti-cytotoxicity on epithelial cells (A549) [2] [M] | aHU IC50 (M): neutralization of SLOwt-induced RBC hemolysis [2] [M] | aMBEP IC50 (M): anti-membrane binding on epithelial cells [2] [M] | aMBRBC IC50 (M): anti-membrane binding on RBCs [2] [M] |
| --- | --- | --- | --- | --- | --- |
| hu55C11λ (antibody, human IgG1, V domains shown, also called 55c11 IgG antibody) VH: QVQLVESGGGLVKPGGSLRLSCAASGFTFSSHSMNWVRQTPGKGLEWVSSINTISTFIYYADSVKGRFTVSRDNARNSLFLQMNTLTADDTGVYYCARERGNRFCDGDCYSGTTFDYWGPGTLVTVSS VL: QPVLTQPPSVSVAPGRTSRITCEENNIGTKNVHWYQQKPGQAPLLVVHDDSDRPSGIPERFSGSNSGNTATLTISRVEAGDEADYYCQVWDSDNDRWLFGGGTRLTVLG | 0.038 | 2.6e-09 | 4.4e-09 | 1.1e-09 | 1.3e-09 |
| hu55G4λ (antibody, human IgG1, V domains shown, also called 55G4 IgG antibody; 55LG4) VH: EVQLVQSGGGAVQPGRSLRLSCAVSGFTFSNFPMHWVRQAPGRGLEWVAVISHDETMIYYLDSVKGRFTISRDNSRNIVYLQMHSLRVEDTAVYYCARDTGVCSGGYCYTPRYFDQWGQGTLVTVSS VL: QPVLTQPPSVSVAPGKTADITCGGDNIGRKHVHWYRQRPSQAPLLVIYDDSDRPSGIPERLSGINSGNTATLTISGVEVGDEADYYCQVWDNDAEQWVFGGGTKLTV | 0.046 | 5.1e-09 | 6.3e-09 | 2e-09 | 7.9e-09 |
| hu55L17κ (antibody, human IgG1, V domains shown, also called 55L17 IgG antibody) VH: QVQLVQSGAEVKKPGSSVKVSCRPPGGTLSNYAINWVRQAPGQGLEWMGGIVPMFSTTKYAQKFQGRLTLTADLSTITAHMELNRLTSEDTAVYYCARDLPAPYCSADLCYKVLDAFDVWGQGTLVTVSS VL: EIVLTQSPSSLSASVGDRVTITCQASQDISNYLNWYQQKPGKAPKLLIYKASSLESGVPSRFSGSGSGTEFTLTITRLQPDDFATYYCQQYEEYLRYSFGQGTKLEIK | 0.078 | 1.1e-09 | 2.7e-09 |  |  |
